The chains are these.
B1: JS306 (peptide)
peptide: PCSEWQSMVQPRCYYGG
B2: JS313 (peptide)
peptide: GVGLCYTILEQWCEMGR
notes: also called 313MM
B3: JS311 (peptide)
peptide: VHAWEQLVIQELYHC
notes: also called 311MM
B4: JS292 (peptide)
peptide: GHGMCYTILEDHCDRVR
notes: also called 292MM
B5: JS315 (peptide)
peptide: GAMACYNIFEYWCSAMK
notes: also called 315MM
B6: JS283 (peptide)
peptide: ATAVWNSMVKQSCYMQG
notes: also called 283MM
B7: JS1827 (peptide)
peptide: PCSAWQSMVEQRCYFG
B8: JS1825 (peptide)
peptide: SCTAWQSMVEQRCYFG
B9: JS1829 (peptide)
peptide: PCSKWESMVLQSCYFG

Where only a bound is given, the exact number is not on record here.

As a reminder, the Kd is the concentration at which binding is half-saturated. A lower Kd goes with tighter binding.

T2 sequence (scFv, as listed by the source): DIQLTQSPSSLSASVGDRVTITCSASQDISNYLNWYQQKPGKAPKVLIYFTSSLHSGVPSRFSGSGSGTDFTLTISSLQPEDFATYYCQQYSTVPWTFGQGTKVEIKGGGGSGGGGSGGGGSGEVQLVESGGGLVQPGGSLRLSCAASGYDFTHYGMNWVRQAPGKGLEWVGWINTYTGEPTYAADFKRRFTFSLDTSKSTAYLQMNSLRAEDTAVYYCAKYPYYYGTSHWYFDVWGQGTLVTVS

The target of one assay is T1, anti-VEGF IgG antibody (DyLight-labelled in the FACS analyses.).
T1 construct: It was DyLight-labelled in the FACS analysis; also called anti-VEGF antibody; DyLight labeled anti-VEGF
T1 sequence (VH, as listed by the source limits assumed, chain 1 of 2): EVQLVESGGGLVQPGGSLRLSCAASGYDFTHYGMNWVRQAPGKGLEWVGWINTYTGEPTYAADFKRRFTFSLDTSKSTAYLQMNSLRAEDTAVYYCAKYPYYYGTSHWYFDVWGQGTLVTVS
T1 sequence (VL, as listed by the source limits assumed, chain 2 of 2): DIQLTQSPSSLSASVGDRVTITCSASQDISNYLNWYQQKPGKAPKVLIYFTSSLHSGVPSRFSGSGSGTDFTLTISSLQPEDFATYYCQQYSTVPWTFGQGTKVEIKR
The assay is described as follows: method not stated.
Take B1: the Kd was above 600 nM.

A further assay concerns the target T2, anti-VEGF scFv AB.
T2 construct: VL-linker-VH designed from ranibizumab; also called anti-VECF scFv
As to the kind of experiment: FACS, peptide displayed on E. coli. For orientation: A flow cytometer gives signals particle by particle.
Regarding B2, the binding result was “binds”.

In the case of B3, the binding result was “binds”.

In the case of B4, the binding result is “binds”.

With B5, the binding result was “binds”.

In the case of B6, the binding result is “binds”.

Another assay has as its target T1, anti-VEGF IgG antibody. The assay is described as follows: FACS of eCPX3.0 clones at 3 concentrations of DyLight labeled anti-VEGF.
As for B7, the “fold higher affinity than 306P” value was at least 10 fold.

For the molecule B8, the “fold higher affinity than 306P” value is at least 10 fold.

Turning to B9, the “fold higher affinity than 306P” value was at least 10 fold.

The values are drawn from patent publication US20160228546A1 (CYTOMX THERAPEUTICS, published 2016).
